The test system of this series is T1, GST-NolA (Bradyrhizobium guangxiense CCBAU53363), ORF:43be7f56.
T1 sequence: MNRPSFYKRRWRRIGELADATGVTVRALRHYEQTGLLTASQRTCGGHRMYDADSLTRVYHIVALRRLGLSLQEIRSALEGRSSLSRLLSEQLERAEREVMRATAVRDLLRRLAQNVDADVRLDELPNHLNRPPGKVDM
The series is described as follows: EMSA. The following applies: EMSA: 10 uL, 1x binding buffer (composition, salt and pH not stated), 1 mg/mL BSA, 1 mg/mL salmon sperm DNA, 25 C, 30 min; 6% native PAGE in TB buffer (44.5 mM …).

We go through one sequence from PMC9927474.

As to “TGTGAACCATAGGAGAGTGCTCATCATGTACGGTCGAATCAACAATTTTTCCGAGAACGAAACTTATTATCGGCAAGATGCGGAGCATTCGAATTGCGAAAGCCAAGACTTCGCGGACGCGTTCGCTAGAATGCAGTTGCAAGATTCGGCCGGCAG (double strand) [nopP promoter probe]”, the binding entry is “no binding”.
